Where two headings read alike, the source gives them in different places.
How the values were obtained:
[1] = target: microtubule (tubulin) (Sus scrofa) (UniProt Q2XVP4); details: cited from earlier work
[2] = target: microtubule (tubulin) (Sus scrofa) (UniProt Q2XVP4); details: cited from earlier work; remark: listed apart in the source
[3] = target: microtubule (tubulin) (Sus scrofa) (UniProt Q2XVP4); details: cited from earlier work; remark: listed apart in the source
[4] = target: paclitaxel-stabilised microtubules (polymerised αβ-tubulin) (bovine) (UniProt Q6B856); experiment: co-sedimentation; ADP.AlFx state (1 mM nucleotide); 2.5 μM MKLP2-MD with 0–10 μM polymerised tubulin (paclitaxel-stabilised MTs), BRB80 plus 25 mM NaCl, 25°C, 100,000 × g; quadratic fit assuming 1:1 motor:tubulin dimer; apparent
[5] = target: paclitaxel-stabilised microtubules (polymerised αβ-tubulin) (bovine) (UniProt Q6B856); experiment: co-sedimentation; no nucleotide (NN, apyrase-treated); 2.5 μM MKLP2-MD with 0–10 μM polymerised tubulin (paclitaxel-stabilised MTs), BRB80 plus 25 mM NaCl, 25°C, 100,000 × g; quadratic fit assuming 1:1 motor:tubulin dimer; apparent
[6] = target: paclitaxel-stabilised microtubules (polymerised αβ-tubulin) (bovine) (UniProt Q6B856); experiment: co-sedimentation; AMPPNP state (1 mM nucleotide); 2.5 μM MKLP2-MD with 0–10 μM polymerised tubulin (paclitaxel-stabilised MTs), BRB80 plus 25 mM NaCl, 25°C, 100,000 × g; quadratic fit assuming 1:1 motor:tubulin dimer; apparent
[7] = target: paclitaxel-stabilised microtubules (polymerised αβ-tubulin) (bovine) (UniProt Q6B856); experiment: co-sedimentation; ADP state (1 mM ADP); 2.5 μM MKLP2-MD with 0–10 μM polymerised tubulin (paclitaxel-stabilised MTs), BRB80 plus 25 mM NaCl, 25°C, 100,000 × g; quadratic fit assuming 1:1 motor:tubulin dimer; apparent
[8] = target: paclitaxel-stabilised microtubules (polymerised αβ-tubulin) (bovine) (UniProt Q6B856)
[9] = target: paclitaxel-stabilised microtubules (polymerised αβ-tubulin) (bovine) (UniProt Q6B856); remark: listed apart in the source

Kin3 (Kif1a) motor domain (from UniProt P33173)
Kd [1]: 6.8 nM
Kd [2]: 5.9 nM
Kd [3]: 4.2 nM

B1: MKLP2 motor domain, construct 25–520 (domain or fragment)
chain: ESTAADLRSVVRKDLLSDCSVISASLEDKQALLEDTSEKVKVYLRIRPFLTSELDRQEDQGCVCIENTETLVLQAPKDSFALKSNERGVGQATHKFTFSQIFGPEVGQVAFFNLTMKEMVKDVLKGQNWLIYTYGVTNSGKTYTIQGTSKDAGILPQSLALIFNSLQGQLHPTPDLKPLLSNEVIWLDSKQIRQEEMKKLSLLIGGLQEEELSTSVKKRVHTESRIGASNSFDSGVAGLSSTSQFTSSSQLDETSQLWAQPDTVPVSVPADIRFSVWISFFEIYNELLYDLLEPPSHQHKRQTLRLCEDQNGNPYVKDLNWIHVRDVEEAWKLLKVGRKNQSFASTHMNQQSSRSHSIFSIRILHLQGEGDIVPKISELSLCDLAGSERCKHQKSGERLKEAGNINTSLHTLGRCIAALRQNQQNRSKQNLIPFRDSKLTRVFQGFFTGRGRSCMIVNVNPCASTYDETLHAAKFSALASQLVHAPPVHLGIPSLH
Kd [4]: 355 nM
Kd [5]: 43 nM
Kd [6]: 43 nM
Kd [7]: 363 nM
MT-stimulated steady-state ATPase, K0.5,MT (Michaelis Menten fit of velocity against [tubulin]) [8]: 1.07 µM

B2: MKLP2 motor domain, construct 1–520 (domain or fragment)
chain: MSHRILSPPAGLLSDEDVVDSPILESTAADLRSVVRKDLLSDCSVISASLEDKQALLEDTSEKVKVYLRIRPFLTSELDRQEDQGCVCIENTETLVLQAPKDSFALKSNERGVGQATHKFTFSQIFGPEVGQVAFFNLTMKEMVKDVLKGQNWLIYTYGVTNSGKTYTIQGTSKDAGILPQSLALIFNSLQGQLHPTPDLKPLLSNEVIWLDSKQIRQEEMKKLSLLIGGLQEEELSTSVKKRVHTESRIGASNSFDSGVAGLSSTSQFTSSSQLDETSQLWAQPDTVPVSVPADIRFSVWISFFEIYNELLYDLLEPPSHQHKRQTLRLCEDQNGNPYVKDLNWIHVRDVEEAWKLLKVGRKNQSFASTHMNQQSSRSHSIFSIRILHLQGEGDIVPKISELSLCDLAGSERCKHQKSGERLKEAGNINTSLHTLGRCIAALRQNQQNRSKQNLIPFRDSKLTRVFQGFFTGRGRSCMIVNVNPCASTYDETLHAAKFSALASQLVHAPPVHLGIPSLH
MT-stimulated steady-state ATPase, K0.5,MT (Michaelis Menten fit of velocity against [tubulin]) [9]: 0.93 µM

Source: paper PMC5602324
